The source of these data is PMC4919469.

Experiment [1] has as its target full-length Cdc42Q61L (human) (UniProt P60953). As to the kind of experiment: scintillation proximity assay; competition; free effector domain titrated into 30 nM Cdc42·[3H]GTP and 30 nM GST-ACK (in Fig. 7B GST-ACK or GST-WASP GBD) immobilised on a fluoromicrosphere; Kd from competition binding isotherms.
The target in a further experiment is Cdc42Δ7Q61L (human) (UniProt P60953). The description is as above.
Chain of Cdc42Δ7Q61L (human) (P60953 1-184 Q61L): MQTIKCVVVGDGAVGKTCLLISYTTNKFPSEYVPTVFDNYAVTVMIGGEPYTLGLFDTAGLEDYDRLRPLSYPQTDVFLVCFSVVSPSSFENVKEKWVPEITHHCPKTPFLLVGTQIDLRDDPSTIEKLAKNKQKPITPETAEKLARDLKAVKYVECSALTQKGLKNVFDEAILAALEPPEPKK

Chain of full-length Cdc42Q61L (human) (P60953 whole entry Q61L, the tested form may be a part): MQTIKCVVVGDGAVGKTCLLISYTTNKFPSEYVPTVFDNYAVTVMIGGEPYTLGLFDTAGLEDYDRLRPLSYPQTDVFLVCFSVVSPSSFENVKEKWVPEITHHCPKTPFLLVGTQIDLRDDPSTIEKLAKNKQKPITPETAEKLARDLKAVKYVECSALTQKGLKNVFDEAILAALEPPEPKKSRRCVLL

By Kd is commonly meant a measure of binding affinity in units of concentration. Take free ACK GBD (domain or fragment): the Kd in experiment [1] came to 11 nM; in the experiment with Cdc42Δ7Q61L (human), 32 nM.
